These are literature values, as cited in publication PMC7463749.

One data set concerns the target BB2R (Homo sapiens) (UniProt P30550).
The target in a further data set is BB1R (Homo sapiens) (UniProt P28336).
UniProt P28336, sequence (P28336 whole entry): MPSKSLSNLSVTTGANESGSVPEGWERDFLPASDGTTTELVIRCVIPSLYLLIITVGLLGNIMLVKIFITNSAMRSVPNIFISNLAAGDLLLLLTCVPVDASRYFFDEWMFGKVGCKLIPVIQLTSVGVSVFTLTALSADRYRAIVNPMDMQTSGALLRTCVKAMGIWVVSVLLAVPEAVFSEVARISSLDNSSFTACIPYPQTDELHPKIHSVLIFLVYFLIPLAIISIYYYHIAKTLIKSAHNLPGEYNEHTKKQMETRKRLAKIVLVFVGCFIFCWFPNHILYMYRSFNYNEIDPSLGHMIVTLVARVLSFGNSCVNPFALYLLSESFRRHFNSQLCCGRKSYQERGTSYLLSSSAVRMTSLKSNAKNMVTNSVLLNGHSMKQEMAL

UniProt P30550, sequence (P30550 whole entry): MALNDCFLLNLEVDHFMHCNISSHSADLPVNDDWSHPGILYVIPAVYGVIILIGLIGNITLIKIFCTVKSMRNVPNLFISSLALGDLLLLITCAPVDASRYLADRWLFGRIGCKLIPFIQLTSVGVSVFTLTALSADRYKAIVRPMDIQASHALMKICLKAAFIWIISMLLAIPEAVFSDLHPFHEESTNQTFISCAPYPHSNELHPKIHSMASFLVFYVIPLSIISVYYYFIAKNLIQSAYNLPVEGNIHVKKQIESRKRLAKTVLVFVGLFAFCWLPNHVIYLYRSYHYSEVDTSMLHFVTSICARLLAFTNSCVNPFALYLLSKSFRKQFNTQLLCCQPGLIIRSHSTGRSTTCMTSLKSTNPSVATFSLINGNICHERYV

For the substance “gastrin-releasing peptide (from UniProt P07492)”, in the data set with BB2R (Homo sapiens), the inhibition constant Ki is 190 pM.

On to neuromedin B (from UniProt P08949), for which the Ki in the data set with BB1R (Homo sapiens) was 52 pM.

What is called Ki is a measure of affinity in units of concentration, obtained from inhibition or displacement.
